Data as given in article PMC10866649 (2024).

B1: Mouse neonatal Fc receptor (mFcRn) (receptor)
chain 1: SETRPPLMYHLTAVSNPSTGLPSFWATGWLGPQQYLTYNSLRQEADPCGAWMWENQVSWYWEKETTDLKSKEQLFLEALKTLEKILNGTYTLQGLLGCELASDNSSVPTAVFALNGEEFMKFNPRIGNWTGEWPETEIVANLWMKQPDAARKESEFLLNSCPERLLGHLERGRRNLEWKEPPSMRLKARPGNSGSSVLTCAAFSFYPPELKFRFLRNGLASGSGNCSTGPNGDGSFHAWSLLEVKRGDEHHYQCQVEHEGLAQPLTVDLDSSARSS
chain 2: IQKTPQIQVYSRHPPENGKPNILNCYVTQFHPPHIEIQMLKNGKKIPKVEMSDMSFSKDWSFYILAHTEFTPTETDTYACRVKHASMAEPKTVYWDRDM
B2: Human IgG1 Fc bearing the Abdeg mutations (Fc^Abdeg, efgartigimod) (domain or fragment)
chain: DKTHTCPPCPAPELLGGPSVFLFPPKPKDTLYITREPEVTCVVVDVSHEDPEVKFNWYVDGVEVHNAKTKPREEQYNSTYRVVSVLTVLHQDWLNGKEYKCKVSNKALPAPIEKTISKAKGQPREPQVYTLPPSRDELTKNQVSLTCLVKGFYPSDIAVEWESNGQPENNYKTTPPVLDSDGSFFLYSKLTVDKSRWQQGNVFSCSVMHEALKFHYTQKSLSLSPGK

Experiments:
[1] = molecular target: Wild-type human IgG1 Fc (Fc^WT) (human, N-linked glycan at N297, predominantly fucosylated agalactosylated or monogalactosylated); test: SPR
[2] = molecular target: B1; test: SPR

| Kd [1] | Kd [2] | Binder |
| --- | --- | --- |
| 70 nM | – | B1 |
| – | 0.27 nM | B2 |
